What was measured:
[1] = target: CsEM1a toxin from Centruroides sculpturatus venom (Centruroides sculpturatus); test: SPR (Biacore X), toxin on CM5 chip, scFv injected, 25 C, Langmuir 1:1
[2] = target: CsEd toxin from Centruroides sculpturatus venom (Centruroides sculpturatus); test: as above
[3] = target: Centruroides sculpturatus whole venom (toxic components CsEM1a and CsEd, ~10% of the venom); test: cell-based or functional assay

Sequence of scFv 10FG2 (SEQ. ID. NO: 1) (scFv): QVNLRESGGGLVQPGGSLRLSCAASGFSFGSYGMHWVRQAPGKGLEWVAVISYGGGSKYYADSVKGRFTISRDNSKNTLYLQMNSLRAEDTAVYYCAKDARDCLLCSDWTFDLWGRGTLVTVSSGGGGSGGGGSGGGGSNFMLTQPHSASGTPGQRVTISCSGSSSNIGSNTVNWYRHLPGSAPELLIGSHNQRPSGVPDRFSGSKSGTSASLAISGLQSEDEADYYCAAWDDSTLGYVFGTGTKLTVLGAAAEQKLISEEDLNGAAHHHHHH
Sequence of CsEM1a toxin from Centruroides sculpturatus venom (Centruroides sculpturatus) (P56646 whole entry): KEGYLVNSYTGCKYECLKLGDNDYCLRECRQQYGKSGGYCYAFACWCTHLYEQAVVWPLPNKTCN

scFv 10FG2 (SEQ. ID. NO: 1)
Kd [1]: 1.1 nM | TR (min), residence time [1]: 63 min | koff [1]: 0.000261 s⁻¹ | kon [1]: 237000 M⁻¹ s⁻¹ | Kd [2]: 1.84 nM | TR (min), residence time [2]: 49 min | koff [2]: 0.00034 s⁻¹ | kon [2]: 185000 M⁻¹ s⁻¹ | Survivors/Total, mixing test, 2 LD50, molar ratio toxin:scFv 1:5 (survivors of 6 mice) [3]: 6 | Survivors/Total, mixing test, 3 LD50, molar ratio toxin:scFv 1:3.3 (survivors of 6 mice) [3]: 6 | Survivors/Total, mixing test, 4 LD50, molar ratio toxin:scFv 1:2.5 (survivors of 6 mice) [3]: 6 | Survivors/Total, mixing test, 5 LD50, molar ratio toxin:scFv 1:2 (survivors of 6 mice) [3]: 6 | Survivors/total, mice injected with venom premixed with scFv, 2 LD50, molar ratio toxin:scFv 1:10 (survivors of 6 mice) [3]: 6

— patent US20240092879A1
